T1: Tsal1 (Glossina morsitans morsitans, UniProt D3TS87 23-399)
T1 sequence: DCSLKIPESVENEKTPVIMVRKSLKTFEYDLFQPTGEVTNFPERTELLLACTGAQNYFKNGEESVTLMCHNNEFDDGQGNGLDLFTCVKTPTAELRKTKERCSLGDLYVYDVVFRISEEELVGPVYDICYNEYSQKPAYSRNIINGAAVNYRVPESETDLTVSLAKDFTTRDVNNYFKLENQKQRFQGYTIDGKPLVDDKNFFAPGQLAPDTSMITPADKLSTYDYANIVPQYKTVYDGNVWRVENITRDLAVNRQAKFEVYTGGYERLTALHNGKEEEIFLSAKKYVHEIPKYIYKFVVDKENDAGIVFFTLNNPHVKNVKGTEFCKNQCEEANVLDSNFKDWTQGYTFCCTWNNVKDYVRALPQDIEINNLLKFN

B1: dsDNA 25bp polyA/T (dsDNA)
DNA 1: AAAAAAAAAAAAAAAAAAAAAAAAA
DNA 2: TTTTTTTTTTTTTTTTTTTTTTTTT

Assays:
Tsal1 [1] = target: T1, Tsal1; assay: SPR; conditions: SPR (BIAcore), 50 mM sodium acetate pH 4.0, 150 mM NaCl, 3.5 mM EDTA, 0.005% Tween-20, 30 ul/min, Langmuir 1:1 fit; temperature not stated
Tsal1 [2] = target: T1, Tsal1; assay: SPR; text: 1.03 nM; ka 1.0E+06, kd 1.0E-03; SPR (BIAcore), 50 mM sodium acetate pH 4.0, 150 mM NaCl, 3.5 mM EDTA, 0.005% Tween-20, 30 ul/min, Langmuir 1:1 fit; temperature not stated; conditions: protein: recombinant; tags: pelB leader (pET22b), His tag implied by Ni-NTA; blunt

| Molecule | Kd (Tsal1 [1]) [nM] | Kd (Tsal1 [2]) [nM] |
| --- | --- | --- |
| dsDNA 161 bp | 0.45 | – |
| dsRNA 121 bp | 2.8 | – |
| B1 | – | 1 |
